Results taken from PMC4676693.

Experiments:
Test in all cases: SPR; Biacore T200; anti-His antibody amine-coupled on a CM5 chip captures the His-tagged receptor (100 nM FcγRIa, 300 nM FcγRIIa_R131 and FcγRIIb, 200 nM FcγRIIIa_V158, 200 nM FcRn); IgG1 glycovariant, Fc-fragment or pre-incubated IgG1 complex injected as analyte (FcγRI 100 nM, FcγRIIa/b 300 nM, FcγRIIIa 200 nM); non-kinetic comparison, WT set as 100%; HBS-N (10 mM HEPES, pH 7.4, 150 mM NaCl)
[1] = target: His-tagged FcγRIIIa_V158 (human)
[2] = target: His-tagged FcγRI (human) (UniProt P12314)
Sequence of UniProt P12314 (P12314 16-374): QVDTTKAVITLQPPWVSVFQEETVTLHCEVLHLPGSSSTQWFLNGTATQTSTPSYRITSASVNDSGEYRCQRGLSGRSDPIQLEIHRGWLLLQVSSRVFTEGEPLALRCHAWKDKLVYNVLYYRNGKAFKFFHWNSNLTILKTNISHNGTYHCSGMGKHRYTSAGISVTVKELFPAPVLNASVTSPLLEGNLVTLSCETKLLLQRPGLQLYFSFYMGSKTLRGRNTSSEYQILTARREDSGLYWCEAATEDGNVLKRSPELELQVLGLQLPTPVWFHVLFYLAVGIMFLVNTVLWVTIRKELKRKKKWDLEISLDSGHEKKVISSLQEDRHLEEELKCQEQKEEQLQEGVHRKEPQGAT

[3] = target: His-tagged FcγRIIb (human) (UniProt P31994)
Sequence of UniProt P31994 (P31994 43-310): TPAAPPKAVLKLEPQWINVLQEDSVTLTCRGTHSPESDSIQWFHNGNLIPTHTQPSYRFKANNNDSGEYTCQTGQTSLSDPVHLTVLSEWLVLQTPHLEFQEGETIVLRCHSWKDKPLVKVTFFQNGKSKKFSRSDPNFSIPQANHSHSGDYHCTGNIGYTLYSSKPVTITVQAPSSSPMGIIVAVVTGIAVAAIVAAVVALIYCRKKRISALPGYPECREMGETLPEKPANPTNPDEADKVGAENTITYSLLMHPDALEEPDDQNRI

[4] = target: His-tagged FcγRIIa_R131 (human)

| Substance | percent binding (WT = 100%) [1] [%] | percent decrease in binding against WT [2] [%] | percent binding (WT = 100%) [3] [%] | percent binding (WT = 100%) [4] [%] |
| --- | --- | --- | --- | --- |
| G1+1SA IgG1 glycovariant (antibody) | 75 | – | – | – |
| M3 IgG1 glycovariant (antibody) | 70 | – | 65 | 45 |
| G0 IgG1 glycovariant (antibody) | 75 | – | – | – |

Second part, the substance after the results:

| percent binding (WT = 100%) [1] [%] | percent decrease in binding against WT [2] [%] | percent binding (WT = 100%) [3] [%] | percent binding (WT = 100%) [4] [%] | Substance |
| --- | --- | --- | --- | --- |
| 75 | – | – | – | G1 IgG1 glycovariant (antibody) |
| – | 40 | – | – | deglycosylated IgG1 glycovariant (antibody) |
